# Measured values reported in patent US20230049752A1 (University of California, published 2023).
# T1: mouse Claudin-6 (CLDN6) (mouse, UniProt Q9Z262 1-219)
# T1 construct: whole, on cells; GFP fusion on engineered HEK293T cells; also called Mouse CLDN6; murine CLDN6
# T1 sequence (looked up): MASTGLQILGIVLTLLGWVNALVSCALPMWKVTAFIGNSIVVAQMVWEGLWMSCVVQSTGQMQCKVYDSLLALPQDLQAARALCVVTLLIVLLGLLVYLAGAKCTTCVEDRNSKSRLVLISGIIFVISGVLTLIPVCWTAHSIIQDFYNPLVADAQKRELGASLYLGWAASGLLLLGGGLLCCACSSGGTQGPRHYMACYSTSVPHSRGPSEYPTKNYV
# Columns and labels:
# [1] = target: human Claudin-6 (CLDN6) (human) (UniProt P56747); experiment: FACS, 0.3 ug Ab, ARK2 cells (2nd Ab only 1351.21)
# [2] = target: human Claudin-6 (CLDN6) (human) (UniProt P56747); experiment: FACS, 1.5 ug Ab, ARK2 cells (2nd Ab only 1351.21)
# [3] = target: human Claudin-6 (CLDN6) (human) (UniProt P56747); experiment: FACS, 1.5 ug Ab, OVCA429 cells (2nd Ab only 885.77)
# [4] = target: human Claudin-6 (CLDN6) (human) (UniProt P56747); experiment: FACS, 0.3 ug Ab, 293T clone expressing human CLDN6 (2nd Ab only 768.07)
# [5] = target: human Claudin-6 (CLDN6) (human) (UniProt P56747); experiment: FACS, 1.5 ug Ab, 293T clone expressing human CLDN6 (2nd Ab only 768.07)
# mouse Claudin-6 (CLDN6) = target: T1, mouse Claudin-6 (CLDN6); experiment: FACS, 293T clone expressing mouse CLDN6, dose not stated (2nd Ab only 1061.72)
# Method: Two doses (1.5 μg or 0.3 μg) of the humanized antibodies were tested for binding to either human CLDN6 or murine CLDN6 which proteins were expressed by engineered 293T clones.
FACS fluorescence [1],FACS fluorescence [2],FACS fluorescence [3],FACS fluorescence [4],FACS fluorescence [5],FACS fluorescence (mouse Claudin-6 (CLDN6)),Binder
19100,38400,64800,176000,327000,3640,"AB4-chim (antibody, V domains shown) VH: QVQLQQSGAELARPGASVKMSCKASGYTFTSYTMHWIKQRPGQGQEWIGYINPSSTYTHYIKKFKDKATLTADKSSSTAYMQLRSLTSEDSAVYYCSRGELGGFAYWGQGTLVTVSA VL: DVVMTQTPLSLPVSLGDQASISCRSSQSLVHSDGNTYLNWYLQKPGQSPKLLIYKVSNRFSGVPDRFSGSGSGTDFTLKIRRVEAEDLGVYFCSQSTHVPYTFGGGTKLEIK"
2830,10800,27500,142000,142000,89300,"AB1-3 (antibody, V domains shown, humanized) VH: QVQLVQSGAEVKKPGASVKVSCKASGYTFTTYTMHWVRQAPGQGLEWMGFINPSSGYTDYAQKFQGRVTMTADTSTSTVYMELSSLRSEDTAVYYCANGDYYVAYWGQGTLVTVSS VL: DIQMTQSPSSLSASVGDRVTITCTASSSVSSTYFHWYQQKPGKAPKLLIYSTSNLASGVPSRFSGSGSGTDYTLTISSLQPEDFATYYCHQYHRSPLTFGQGTKLEIK"
7490,22400,54300,138000,213000,128000,"AB1-5 (antibody, V domains shown, humanized) VH: QVQLVQSGAEVKKPGASVKVSCKASGYTFTTYTMHWVRQAPGQGLEWMGFINPSSGYTDYAQKFQGRVTMTADTSTSTVYMELSSLRSEDTAVYYCANGDYYVAYWGQGTLVTVSS VL: DIQLTQSPSSLSASVGDRVTMTCTASSSVSSTYFHWYQQKPGKAPKLWIYSTSNLASGVPSRFSGSGSGTDYTLTISSMQPEDAATYYCHQYHRSPLTFGQGTKLEIK"
3640,10000,34600,102000,197000,75900,"AB1-4 (antibody, V domains shown, humanized) VH: QVQLVQSGAEVKKPGASVKVSCKASGYTFTTYTMHWVRQAPGQGLEWMGFINPSSGYTDYAQKFQGRVTMTADTSTSTVYMELSSLRSEDTAVYYCANGDYYVAYWGQGTLVTVSS VL: DIQLTQSPSSLSASVGDRVTMTCTASSSVSSTYFHWYQQKPGKAPKLLIYSTSNLASGVPSRFSGSGSGTDYTLTISSMQPEDAATYYCHQYHRSPLTFGQGTKLEIK"
5810,17600,66000,98800,210000,122000,"AB1-8 (antibody, V domains shown, humanized) VH: QVQLVQSGAEVKKPGASVKMSCKASGYTFTTYTMHWVRQAPGQGLEWIGFINPSSGYTDYAQKFQGRVTLTADTSTSTVYMELSSLRSEDTAVYYCANGDYYVAYWGQGTLVTVSS VL: DIQLTQSPSSLSASVGDRVTMTCTASSSVSSTYFHWYQQKPGKAPKLWIYSTSNLASGVPSRFSGSGSGTDYTLTISSMQPEDAATYYCHQYHRSPLTFGQGTKLEIK"
1050,1400,1200,14100,49000,741,"AB4-4 (antibody, V domains shown, humanized) VH: QVQLVQSGAEVKKPGASVKMSCKASGYTFTSYTMHWIRQAPGQGLEWIGYINPSSTYTHYAQKFQGRATLTADTSTSTAYMELSSLRSEDTAVYYCSRGELGGFAYWGQGTLVTVSS VL: DVVMTQSPLSLPVTLGQPASISCRSSQSLVHSDGNTYLNWYQQRPGQSPRLLIYKVSNRFSGVPDRFSGSGSGTDFTLKISRVEAEDVGVYYCSQSTHVPYTFGQGTKLEIK"
967,1200,1350,16800,43400,2000,"AB4-5 (antibody, V domains shown, humanized) VH: QVQLVQSGAEVKKPGASVKMSCKASGYTFTSYTMHWIRQAPGQGQEWIGYINPSSTYTHYAQKFQGRATLTADTSTSTAYMELSSLRSEDTAVYYCSRGELGGFAYWGQGTLVTVSS VL: DVVMTQSPLSLPVTLGQPASISCRSSQSLVHSDGNTYLNWYQQRPGQSPRLLIYKVSNRFSGVPDRFSGSGSGTDFTLKISRVEAEDVGVYYCSQSTHVPYTFGQGTKLEIK"
1190,1520,1160,14300,47800,671,"AB4-3 (antibody, V domains shown, humanized) VH: QVQLVQSGAEVKKPGASVKVSCKASGYTFTSYTMHWVRQAPGQGLEWMGYINPSSTYTHYAQKFQGRVTMTADTSTSTVYMELSSLRSEDTAVYYCSRGELGGFAYWGQGTLVTVSS VL: DVVMTQSPLSLPVTLGQPASISCRSSQSLVHSDGNTYLNWYQQRPGQSPRLLIYKVSNRFSGVPDRFSGSGSGTDFTLKISRVEAEDVGVYYCSQSTHVPYTFGQGTKLEIK"
1160,54900,88700,251000,340000,23000,"AB3-3 (antibody, V domains shown, humanized) VH: EVQLLESGGGLVQPGGSMRLSCAASGFTFSNYWMNWVRQAPGKGLEWVAQIRLKSDNYATHYADSVKGRFTISRDDSKNTVYLQMNSLRAEDTGVYYCNDGPPSGCWGQGTLLTVSS VL: DIQMTQSPSSLSASVGDRVTITCRISENIYSYLAWYQQKPGKAPKLLVYNAKILVEGVPSRFSGSGSGTDFTLTISSLQPEDFGTYYCQHHYTVPWTFGQGTKLEIK"
1280,2910,2950,13300,48600,783,"AB3-5 (antibody, V domains shown, humanized) VH: EVQLLESGGGLVQPGGSMRLSCAASGFTFSNYWMNWVRQAPGKGLEWVAQIRLKSDNYATHYADSVKGRFTISRDDSKNTVYLQMNSLRAEDTGVYYCNDGPPSGYWGQGTLLTVSS VL: DIQMTQSPSSLSASVGDRVTITCRISENIYSYLAWYQQKPGKAPKLLVYNAKILVEGVPSRFSGSGSGTDFTLTISSLQPEDFGTYYCQHHYTVPWTFGQGTKLEIK"
1320,1460,2960,11600,55800,1520,"AB3-4 (antibody, V domains shown, humanized) VH: EVQLLESGGGLVQPGGSMRLSCAASGFTFSNYWMNWVRQAPGKGLEWVAQIRLKSDNYATHYADSVKGRFTISRDDSKNTVYLQMNSLRAEDTGVYYCNDGPPSGYWGQGTLLTVSS VL: DIQMTQSPSSLSASVGDRVTITCRISENIYSYLAWYQQKPGKAPKLLIYNAKILVEGVPSRFSGSGSGTDFTLTISSLQPEDFATYYCQHHYTVPWTFGQGTKLEIK"
14700,33600,85900,309000,396000,31700,"AB3-2 (antibody, V domains shown, humanized) VH: EVQLLESGGGLVQPGGSMRLSCAASGFTFSNYWMNWVRQAPGKGLEWVAQIRLKSDNYATHYADSVKGRFTISRDDSKNTVYLQMNSLRAEDTGVYYCNDGPPSGCWGQGTLLTVSS VL: DIQMTQSPSSLSASVGDRVTITCRISENIYSYLAWYQQKPGKAPKLLIYNAKILVEGVPSRFSGSGSGTDFTLTISSLQPEDFATYYCQHHYTVPWTFGQGTKLEIK"
58800,51900,177000,312000,364000,514000,"AB1-Chim (antibody, V domains shown) VH: QVQLQQSAAELARPGASVKMSCKASGYTFTTYTMHWVKQRPGQGLEWIGFINPSSGYTDYNQKFKDRTTLTADKSSSTVYMQLSSLTSEDSAVYYCANGDYYVAYWGQGTLVTVSA VL: QIVLTQSPAIMSASLGERVTMTCTASSSVSSTYFHWYQQKPGSSPKLWIYSTSNLASGVPRRFSGSASGTSYSLTISSMEAEDAATYYCHQYHRSPLTFGAGTKLELK"
17100,29100,138000,267000,459000,67900,"AB3-chim (antibody, V domains shown) VH: EVKLEESGGGLVQPGGSMKLSCVASGFTFSNYWMNWVRQSPEKGLEWVAQIRLKSDNYATHYAESVKGRFTISRDDSKRSVYLQMNNLRAEDTGTYYCNDGPPSGCWGQGTTLIVSS VL: DIQMTQSPASLSASVGETVTITCRISENIYSYLAWYQQKQGKSPQLLVYNAKILVEGVPSRFSGSGSGTQFSLKINSLQPEDFGNYYCQHHYTVPWTFGGGTKLEIK"
